Consider 16 sequences from the nanobody polyreactivity screen of Harvey et al. (2022).

This series can be described thus: yeast display, Sf9 membrane polyspecificity reagent, FACS + sequencing; frameworks hold sequencing errors. In short, it runs like this:
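Galactose induction of a Saccharomyces cerevisiae BJ5465 synthetic nanobody display library ran 36–48 hours. The cells were then stained for 1 hour at 4 °C with 10% biotinylated, detergent-solubilized Sf9 membrane reagent, pulled down on streptavidin microbeads and FACS-sorted into low and high (top ~1%) gates on expression and reagent-binding fluorescence. Labels for polyreactivity follow the gate of origin.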
Regarding “QVQVVESGGGLVQAGGSLRLSCAASGSIFYDYAMGWYRQAPGKERELVAAISWSGGRTYYADSVKGRFTISRDYAKNTVYLQMNSLKPEDTAVYYCAATTGVRSRRYYYWGQGTQVSVSS”, the “polyreactivity (PSR sort gate)” value is recorded as “low polyreactivity”.
The value for “QVQVVESGGGLVQAGGSLRLSCAASGSILGLYAMGWYRQAPGKERELVAAITYRGGRTDYADSVKGRFTISRDNAKNTVYLQMNCLKPEDTAVYYCAAGYLPRPRYSTSYLYYYWGQGTQVTVSS” was “high polyreactivity”; that for “QVQVVESGGGLVQAGGSLRLSCAASGSTFGYYAMGWYRQAPGKERELVAAISGTGSTYYADSVKGRFTISRDNAKNTVFLQMNSLKPEDTAVYYCAAYPRGSQRYNYWGQGTQVTVSS” was “high polyreactivity”.
To “QVQVVESGGGLVQAGGSLRLSCAASGSTFVIYDMGWYRQAPGKERELVAVITIIGGSTYYADAVKGRFTISRDNAKNTVYLELNSLKPEDTAVYDCAVEVGYTDSPYSYDYWGQGTQVTVSS” belongs “low polyreactivity”.
To “QVQVVESGGGLVQAGGSLRLSCAASGSTLSKNAMGWYRQAPGKERELVAAITLRGGSTSFADSVKGRFTISRDNAMNTVYLHMNSLKPEDTAVYYCNAVSKFDYGYWVQGTQVTVSS” belongs “high polyreactivity”.
Consider “QVRLVESGGGLVQAGGSLRLSCAASGFTFVVNAMGWYRQAPGKERELVAAITCSGGRTYYADSVKGRFTISRDNAKNTVSLQMNSLKPEDTAVYYCNAEWDDYEIEYDYWGQGTQVTVSS”, for which the “polyreactivity (PSR sort gate)” value was “low polyreactivity”.
The value for “QVRLVESGGGLVQAGGSLRLSCAASGRIFYRYAIGWYRQAPGKERELVAAISSSGGSTYYADSVKGRFTISRDNAKNTVYLQMNSLKPEDTAVYYCAADAGSINSGYDYWGQGTQVTVSS” was “low polyreactivity”; that for “QVRLVESGGGLVQAGGSLRLSCAASGRTFRIYAMGWYRQAPGKERELVAAIRWSGGTTYYADSVKGRFTISRDNAKNTVYLQMNSLKPEDTAVYYCNTNSYYEDDYWGQGTQVTVSS” was “high polyreactivity”; that for “QVRLVESGGGLVQAGGSLRLSCAASGSTFKTYAMGWYRQAPGKERELVAAISAGGGSTYYADSVKGRFTISRDNAKNTVYLQMYSLKPEDTAVYYCAAAYIYAGWDYEYWGQGTQVTVSS” was “low polyreactivity”.
The value for “QVWLQESGRGLLQACGSLRLSCAASGTISRDIFMGWYRQAPGKEREFVATIAQGGITNYADSVKGRFTISRDNAKNTVYLQMNSVKPGDTAVYFCAARDGNCYWFYYWGQGTQVTVSS” was “high polyreactivity”; that for “QYQLGESGGGLVQAGGSLRLSCAASGRIFTWNAMGWYRQAPGKERELVAAIRRGGGTYADSVKGRYTISRDNGKNTFYLQMHSLKPEDTAVYYCAATSGYYAMNYWGQGTQVTVSS” was “high polyreactivity”; that for “QYQLVESGGCLVQAGGTLRLRCAATGFTFKSYAMGWYRHAHGKAWELVAAISNRGGSTYYADSVKGRFTISRDNAKNSVYLQINSLKPEDNAVYYCATQYYVRPFDYWGQGTQVTVSS” was “high polyreactivity”.
To “QYQLVESGGGLVQAGGSLRLSCAASGRIFLVYVMGWYRQAPGKERELVADITFSGGSTYYADSVKGRFTISRDNEKNNVYLQMNSLKPEYTAVYYCAAATWSFLDYWGQGTQVTVSS” belongs “high polyreactivity”; to “RVQLQESGGGLVQAGGTLRLSCAASGTIFIRGDMGWYRQAPGKEREFVATIDTGSNTYYADSEKGRFTISRDNAKKAVYLQMNCLKPGDTAVYYCVVDYQLSGRLWDWGQGTQVTLSS”, “low polyreactivity”; to “RVQLVESGGGLVQAGGSHRLSCAASGRIFKNYAIGWYRQAPGKQRELVASITIGSTTYAESEKGRFTISRDNAKNTVYLKMNSLKREDTAVYYCAARRPRGFQGPNPWGYYYWGQGTQVTVSS”, “high polyreactivity”.
On to “RVQLVESGGGLVQAGGSLRLSCAASGSIFLIYAMGWYRQAPGKERELVAAISTGDSTYYADSVKGRFTISRDNAKNTVYLQMNSLKPEDTAVYYCAADTYSYEVPWWSAGMDYWGQGTQVTVSS”, for which the “polyreactivity (PSR sort gate)” value is given as “high polyreactivity”.
